The record followed here is patent US20230398224A1.

Positions of bridges follow the written chain, without caps; N, C: chain ends. Non-standard residues stand in square brackets, D forms with d. Groups on a side chain read outwards from the residue. int‑CC7 = mannose-6-phosphonate M6PR ligand; Bip = N[C@@H](Cc1ccc(-c2ccccc2)cc1)C(=O)O; NMeA = CN[C@@H](C)C(=O)O

The chains are these.
B1: Bifunctional compound (BFC-3) (peptide)
peptide: {CH2CO}-FVPTT[Bip][NMeA][Bip][NMeA]EAPCGK-NH2
modifications: thioether N-13; not fully specified (residue 15); also: further groups not given here

In the assay the target is Purified recombinant full length human PCSK9 with C-terminal biotinylated Avitag (human) (UniProt Q8NBP7). In words: SPR, ProteOn XPR36; biotinylated human PCSK9 on NeutrAvidin NLC chip.
Chain of Purified recombinant full length human PCSK9 with C-terminal biotinylated Avitag (human) (Q8NBP7 31-692): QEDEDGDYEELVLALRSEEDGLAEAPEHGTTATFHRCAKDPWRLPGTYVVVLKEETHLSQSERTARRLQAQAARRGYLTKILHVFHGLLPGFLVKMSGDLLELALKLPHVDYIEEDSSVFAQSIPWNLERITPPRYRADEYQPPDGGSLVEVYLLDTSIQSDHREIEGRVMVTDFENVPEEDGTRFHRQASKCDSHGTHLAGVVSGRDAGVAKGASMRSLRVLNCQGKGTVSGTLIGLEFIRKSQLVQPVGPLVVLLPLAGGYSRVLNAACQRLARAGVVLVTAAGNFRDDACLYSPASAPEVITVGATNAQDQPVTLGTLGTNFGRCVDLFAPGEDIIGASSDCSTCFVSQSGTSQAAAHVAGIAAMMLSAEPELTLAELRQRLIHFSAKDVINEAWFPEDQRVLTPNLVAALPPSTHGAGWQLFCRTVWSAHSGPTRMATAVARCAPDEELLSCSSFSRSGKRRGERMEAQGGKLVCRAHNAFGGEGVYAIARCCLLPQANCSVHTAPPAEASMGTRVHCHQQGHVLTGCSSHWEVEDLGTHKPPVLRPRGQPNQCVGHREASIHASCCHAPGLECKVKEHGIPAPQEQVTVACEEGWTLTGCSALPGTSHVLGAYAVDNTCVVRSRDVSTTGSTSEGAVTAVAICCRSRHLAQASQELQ
With {CH2CO}-FVPTT[Bip][NMeA][Bip][NMeA]EAPCGK([Lys(4-oxopentanoyl)-int‑CC7])-NH2 (thioether N-13; not fully specified; also: further groups not given here) [Bifunctional compound (BFC-8)], the Kd worked out at 4.9 nM.

For the molecule B1, the Kd was 7.7 nM.

Consider {CH2CO}-FVPTT[Bip][NMeA][Bip][NMeA]EAPCGK([Lys(4-oxopentanoyl)-int‑CC7])-NH2 (thioether N-13; not fully specified; also: further groups not given here) [Bifunctional compound (BFC-9)], for which the Kd worked out at 7.4 nM.
